This note sets out measurements from PMC6761149.

The target of assay [1] is light-dependent protochlorophyllide oxidoreductase of Thermosynechococcus elongatus BP-1 (TeLPOR) (Thermosynechococcus elongatus BP-1) (UniProt Q8DLC1). The assay is described as follows: AUC; sedimentation velocity with multiwavelength absorbance optics (MWA-AUC), 20 °C, 50 krpm, c(s) model in SEDFIT; apoprotein (no NADPH, no Pchlide), 0.615 mg ml^-1 (1.23 mg ml^-1 diluted to half with reaction buffer).

Assay [2] shares this target. The assay is described as follows: SAXS; ESRF BM29, 10 °C, 20 mM Tris/HCl pH 7.5, 500 mM NaCl, 20% (v/v) glycerol; apoprotein (no NADPH, no Pchlide), concentration series, apo 2 dataset merged from low and high concentration; dimer content assuming only monomers and dimers.

“light-dependent protochlorophyllide oxidoreductase of Thermosynechococcus elongatus BP-1 (TeLPOR) (from UniProt Q8DLC1 1-322) (enzyme)” showed a percent dimers (apoprotein, without NADPH and Pchlide) in assay [1] of 3.6%. In assay [2], this substance yielded a dimer content (%) from I(0) (apoprotein, without NADPH and Pchlide) of 0%; a dimer content (%) from Vp (apoprotein, without NADPH and Pchlide) of 1.7%.
